{
  "source": "patent US20250277025A1",
  "about": "(SHIJIAZHUANG YILING PHARMACEUTICAL, published 2025)",
  "binders": {"B1": {"name": "IMAB362 (Ganymed) (antibody, V domains shown)", "VH": "QVQLQQPGAELVRPGASVKLSCKASGYTFTSYWINWVKQRPGQGLEWIGNIYPSDSYTNYNQKFKDKATLTVDKSSSTAYMQLSSPTSEDSAVYYCTRSWRGNSFDYWGQGTTLTVSS", "VL": "DIVMTQSPSSLTVTAGEKVTMSCKSSQSLLNSGNQKNYLTWYQQKPGQPPKLLIYWASTRESGVPDRFTGSGSGTDFTLTISSVQAEDLAVYYCQNDYSYPFTFGSGTKLEIKR"}, "B2": {"name": "YL-G1-19-02 (antibody, human IgG1, kappa)", "heavy": "not shown", "light": "DIVMTQSPSSLTVTAGEKVTMSCKSSQSLLNSGNQKNYLTWYQQRPGQPPKLLIYWASTRESGVPVRFTGSGSGTDFTLTISSVQAEDLAVYYCQNAYIYPLTFGTGTKLELKRTVAAPSVFIFPPSDEQLKSGTASVVCLLNNFYPREAKVQWKVDNALQSGNSQESVTEQDSKDSTYSLSSTLTLSKADYEKHKVYACEVTHQGLSSPVTKSFNRGEC"}, "B3": {"name": "YL-G2-D (antibody, human IgG1, kappa)", "heavy": "QLQQSGPELEKPGASVKISCKASGYSFTGYKMNWVKQSNGESLEWIGNIDPYYGDTTYTQKFKGKATFTVDTSSSTAYMQLKSLTSEDSAVYFCARYNRGNTMDYWGQGTSVTVSSASTKGPSVFPLAPSSKSTSGGTAALGCLVKDYFPEPVTVSWNSGALTSGVHTFPAVLQSSGLYSLSSVVTVPSSSLGTQTYICNVNHKPSNTKVDKRVEPKSCDKTHTCPPCPAPELVGGPSVFLLPPKPKDTLMISRTPEVTCVVVDVSHEDPEVKFNWYVDGVEVHNAKTKPPEEQYNSTLRVVSVLTVLHQDWLNGKEYKCKVSNKALPAPIEKTISKAKGQPREPQVYTLPPSREEMTKNQVSLTCLVKGFYPSDIAVEWESNGQPENNYKTTPLVLDSDGSFFLYSKLTVDKSRWQQGNVFSCSVMHEALHNHYTQKSLSLSPGK", "light": "B2 light with M21L, T75A, Y93F, I99F, K113R", "notes": "Fc-engineered version of YL-G1-19-04 without the first two VH residues; also called Fc-engineered chimeric antibody"}, "B4": {"name": "YL-G2-C (antibody, human IgG1, kappa)", "heavy": "QIQLVQSGPELRKPGETVKISCKASGFPFTTDGMSWVKQAPGKGLKWMGWINTYSGVPTYADDFKGRVAFSLETSASTAYLQIKNLKNEDTATYFCARFRRGNALDNWGQGTSVTVSSASTKGPSVFPLAPSSKSTSGGTAALGCLVKDYFPEPVTVSWNSGALTSGVHTFPAVLQSSGLYSLSSVVTVPSSSLGTQTYICNVNHKPSNTKVDKRVEPKSCDKTHTCPPCPAPELVGGPSVFLLPPKPKDTLMISRTPEVTCVVVDVSHEDPEVKFNWYVDGVEVHNAKTKPPEEQYNSTLRVVSVLTVLHQDWLNGKEYKCKVSNKALPAPIEKTISKAKGQPREPQVYTLPPSREEMTKNQVSLTCLVKGFYPSDIAVEWESNGQPENNYKTTPLVLDSDGSFFLYSKLTVDKSRWQQGNVFSCSVMHEALHNHYTQKSLSLSPGK", "light": "B2 light with R45K, V66D, V91I, A97N, I99F, T106A, K109R", "notes": "Fc-engineered version of YL-G1-19-03; also called Fc-engineered chimeric antibody"}, "B5": {"name": "YL-G2-B (antibody, human IgG1, kappa)", "heavy": "EVQLQQSGPELEKPGASVKISCKASGYSFTGYKMNWVKQSNGKSLEWIGNIDPYYGGTTYNQKFKGKATLTVDKSSSTAYMQLKSLTSEDSAVYYCARYGKGNTMDYWGQGTSVTVSSASTKGPSVFPLAPSSKSTSGGTAALGCLVKDYFPEPVTVSWNSGALTSGVHTFPAVLQSSGLYSLSSVVTVPSSSLGTQTYICNVNHKPSNTKVDKRVEPKSCDKTHTCPPCPAPELVGGPSVFLLPPKPKDTLMISRTPEVTCVVVDVSHEDPEVKFNWYVDGVEVHNAKTKPPEEQYNSTLRVVSVLTVLHQDWLNGKEYKCKVSNKALPAPIEKTISKAKGQPREPQVYTLPPSREEMTKNQVSLTCLVKGFYPSDIAVEWESNGQPENNYKTTPLVLDSDGSFFLYSKLTVDKSRWQQGNVFSCSVMHEALHNHYTQKSLSLSPGK", "light": "B2 light", "notes": "also called YL-G2-B batch 1; YL-G2-B batch 2"}},
  "key": {"[1]": {"molecular_target": "human CLDN18.2 expressed on cells (human)", "experiment": "cell-based or functional assay"}, "[2]": {"molecular_target": "human CLDN18.2 expressed on cells (human)", "experiment": "cell-based or functional assay", "remark": "listed apart in the source"}, "[3]": {"molecular_target": "human CLDN18.2 expressed on cells (human)", "experiment": "cell-based or functional assay", "remark": "listed apart in the source"}, "[4]": {"molecular_target": "human CLDN18.2 expressed on cells (human)", "experiment": "cell-based or functional assay", "remark": "listed apart in the source"}, "[5]": {"molecular_target": "T1, human CLDN18.2 expressed on cells (human)", "T1 construct": "also called huCLDN18.2", "experiment": "flow cytometry (geometric mean, Alexa Fluor 647 anti-human IgG Fc) on CLDN18.2-expressing 293T cells"}, "[6]": {"molecular_target": "T1, human CLDN18.2 expressed on cells", "experiment": "flow cytometry on CHO cells expressing huCLDN18.2, GAH-FITC secondary, percent FITC-positive cells", "procedure": "CHO cells expressing huCLDN18.2 were used to assess the binding of the antibodies. Cells were seeded at 5×10⁵ cells per 100 μl into a well of a 96-well plate for each sample. Then, 100 μl of each serially diluted antibody was added to the cells, each dilution started at 40 μg/ml and was diluted 5-fold. Therefore, the final concentration of each antibody starts at 20 μg/ml followed by a 5-fold serial dilution. After 1 hour, the cells were washed twice and 100 μl of GAH-FITC (1:200 dilution) was added to each well. After 30 minutes, the cells were washed twice and resuspended in 120 μl of FACS buffer. The cells were analyzed via flow cytometry.\nUnstained cells were used as a reference to set up overall target cell gating and to establish the FITC-negative populations, allowing us to establish the FITC-positive cell gate for each cell line. Additionally, the mean fluorescence intensity (MFI) of the entire population of cells was calculated to secondarily validate the FITC-positive results. The ratio of the gated positive cell number to the total live cell number is taken as the percentage of positive cells."}},
  "note": "Residue numbers refer to the chain shown, from its start.",
  "data": [
    {"binder": "B1", "values": [
      {"measurement": "ADCC (PBMC) on NCI-N87 CLDN18.2 cells, LDH: EC50 (run A)", "setting": "[1]", "value": 0.057, "unit": "nM"},
      {"measurement": "ADCC (PBMC) on NCI-N87 CLDN18.2 cells, LDH: EC50 (run B)", "setting": "[1]", "value": 0.082, "unit": "nM"},
      {"measurement": "ADCC (PBMC) on NCI-N87 CLDN18.2 cells, LDH: EC50 (run C)", "setting": "[1]", "value": 0.1, "unit": "nM"},
      {"measurement": "CDC on CT26 CLDN18.2 cells, LDH: EC50 (run A)", "setting": "[2]", "value": "~11.5", "unit": "nM"},
      {"measurement": "CDC on CT26 CLDN18.2 cells, LDH: EC50 (run B)", "setting": "[2]", "value": "~10.7", "unit": "nM"},
      {"measurement": "CDC on CT26 CLDN18.2 cells, LDH: EC50 (run C)", "setting": "[2]", "value": "~11.9", "unit": "nM"},
      {"measurement": "CDC on KATOIII CLDN18.2 cells, LDH: EC50 (run A)", "setting": "[3]", "value": "~38.1", "unit": "nM"},
      {"measurement": "CDC on KATOIII CLDN18.2 cells, LDH: EC50 (run B)", "setting": "[3]", "value": "~22.7", "unit": "nM"},
      {"measurement": "CDC on KATOIII CLDN18.2 cells, LDH: EC50 (run C)", "setting": "[3]", "value": "~27.5", "unit": "nM"},
      {"measurement": "ADCC (PBMC) on KATOIII CLDN18.2 cells, LDH: EC50 (run A)", "setting": "[4]", "value": 0.12, "unit": "nM"},
      {"measurement": "ADCC (PBMC) on KATOIII CLDN18.2 cells, LDH: EC50 (run B)", "setting": "[4]", "value": 0.22, "unit": "nM"},
      {"measurement": "ADCC (PBMC) on KATOIII CLDN18.2 cells, LDH: EC50 (run C)", "setting": "[4]", "value": 0.27, "unit": "nM"},
      {"measurement": "EC50 (read off the curve)", "setting": "[5]", "value": "~800", "unit": "ng/mL"}
    ]},
    {"binder": "B2", "values": [
      {"measurement": "ADCC (PBMC) on KATOIII CLDN18.2 cells, LDH: max (% cytotoxity)", "setting": "[4]", "value": 19.9, "unit": "%"}
    ]},
    {"binder": "B3", "values": [
      {"measurement": "EC50 (read off the curve)", "setting": "[6]", "value": "~0.3", "unit": "ng/mL"}
    ]},
    {"binder": "B4", "values": [
      {"measurement": "EC50 (read off the curve)", "setting": "[6]", "value": "~0.6", "unit": "ng/mL"}
    ]},
    {"binder": "B5", "values": [
      {"measurement": "EC50 (read off the curve)", "setting": "[6]", "value": "~0.6", "unit": "ng/mL"}
    ]}
  ]
}
